The results in this text go back to the nanobody polyreactivity screen of Harvey et al. (2022).

The data set in a line: yeast display, Sf9 membrane polyspecificity reagent, FACS + sequencing; frameworks hold sequencing errors. The method in brief:
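A synthetic nanobody library was expressed on Saccharomyces cerevisiae BJ5465 by galactose induction for 36–48 hours. The library was stained for 1 hour at 4 °C with 10% biotinylated, detergent-solubilized Sf9 membrane reagent and enriched with streptavidin microbeads before FACS. Low and high (top ~1%) gates were set on anti-HA fluorescence for expression and streptavidin fluorescence for reagent binding, and each polyreactivity label reflects the gate of origin.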
As to “QVQLVESGGGLVQAGGSLRLSCAASGSTFGYYAMGWYRQEPGKERELVAAISRGSSTYYADSVKGRFTISRDNAKNTVYLQMNSLKPEDTAVYYCAAKRYAYGSLDYWGQGTQVTVSS”, the “polyreactivity (PSR sort gate)” value is “high polyreactivity”.
“QVQLVESGGGLVQAGGSLRLSCAASGSTFGYYAMRWYRQAPGKERELVAAIRSSGGGTYYADSVKGRFTISRDNAKNTVYLQMNSLKPEDTAVYYCATDAPILVNAEYDEWLEYDYWGQGTQVTVSS”: the “polyreactivity (PSR sort gate)” value was “low polyreactivity”.
As for “QVQLVESGGGLVQAGGSLRLSCAASGSTFGYYGMGWYRQAPGKERELVASIDSRGDSTYADSVKGRFTISRDNAKNTVYLQMNSLKPEDTAVYYCAADSWYSWFDSWGQGTQVTVSS”, the “polyreactivity (PSR sort gate)” value was “low polyreactivity”.
For the sequence “QVQLVESGGGLVQAGGSLRLSCAASGSTFGYYTMGWYREAPGKERELVAAISWSGGSTYYADSVKGRFTISRDNAKNTVYLQMNSLKPEDTAVYYCAALGYTYKYYSYYWGQGTQVTVSS”, the “polyreactivity (PSR sort gate)” value is on record as “high polyreactivity”.
For “QVQLVESGGGLVQAGGSLRLSCAASGSTFGYYTMGWYRQAPGKERELVAALTWSGGSTYYADSVKGRFTISRDNAKNTVYLQMNSLKPEDTAVYYCAADDYWTPFGYWGQGSQVTVSS”, the “polyreactivity (PSR sort gate)” value is “low polyreactivity”.
For the sequence “QVQLVESGGGLVQAGGSLRLSCAASGSTFGYYTMGWYRQAPGKERELVASISWSGASTHYADSVKGRFTISRDNAKNTVYLPMNRLKPEDTAVYYCAADSYPAYLGFVGFDYWGQGTQVTVSS”, the “polyreactivity (PSR sort gate)” value is given as “low polyreactivity”.
“QVQLVESGGGLVQAGGSLRLSCAASGSTFGYYTMGWYRQEPVKETELVAAISYSGGRTFYADSVKGRFTISRDNAKNSVYLQMKSLKTEDTEVYYCNKRYIPSYLSHLDYWGQGTQVTVSS”: the “polyreactivity (PSR sort gate)” value is “high polyreactivity”.
The same measure for “QVQLVESGGGLVQAGGSLRLSCAASGSTFHKYTMGWYRQAPGKEREFVAAITRNGGTTSYADSVKGRFTISRDNAKNTVYLQMNSLKPEDTAVYYCAVKWRRQINYDYWGQGTQVTVSS”: “high polyreactivity”; for “QVQLVESGGGLVQAGGSLRLSCAASGSTFHLNAMGWYIQAPGKERELVAAISLSGGSTYYADSVKGRFTISRDHAKNTVYLQMNSLKPEYTAVYYCAAEQWYDNYLEYDYWGQGTEVTVSS”: “high polyreactivity”.
For the sequence “QVQLVESGGGLVQAGGSLRLSCAASGSTFHLNAMGWYRQAPGKERELVAAISWDGSSTSYADSVKGRFTISRDNAKNTVYLQMNSLKPEDTAVYYCAKRSSGVSVPVAYGGIKRYNSWGQGTQVTVSS”, the “polyreactivity (PSR sort gate)” value was “low polyreactivity”.
For the sequence “QVQLVESGGGLVQAGGSLRLSCAASGSTFHNYAMGWYRQAPGKERELVAGISVRGGGTYYADSVKGRFTISRDNAKNNVYLQMNSLKPEDTAVYYCAKRSRYYYRYDYWGQGSQVTVSS”, the “polyreactivity (PSR sort gate)” value is listed as “high polyreactivity”.
With “QVQLVESGGGLVQAGGSLRLSCAASGSTFHPYAMGWYIQAPGKERELVAAITWRVGSTYYADSVKGRFTISRDNAKNTVYLQMNSLKPEDTAVFYCAVSYLSSLGRSRYDYWGQGTQVTVSS”, the “polyreactivity (PSR sort gate)” value is reported as “low polyreactivity”.
In the case of “QVQLVESGGGLVQAGGSLRLSCAASGSTFHRNAMGWYRQAPGKERELVAAITSGGSTNYADSEKGRFTISRDNAKNTVYLQMNRLKPEDTPVYYCAKDDRHYNRGWYDYWGQGTQVTVSS”, the “polyreactivity (PSR sort gate)” value is listed as “low polyreactivity”.
For the sequence “QVQLVESGGGLVQAGGSLRLSCAASGSTFHSNAMGWYRQAPGKERELVAAISQGGGRTYYADSVKGRFTISRDNAKNTVYLQMNSLKPEDTAVYYCNRRTRGLIDGGMDYWGQGTQVTVSS”, the “polyreactivity (PSR sort gate)” value is “low polyreactivity”.
As for “QVQLVESGGGLVQAGGSLRLSCAASGSTFHTNSMGGYRQAPGKETELVAAIRSGGGTNYADSVKGRFTISRDNAKNTVYLQMNSLKPEDTAVYYCNASPLPYSHRGDYWGQGTQVTVSS”, the entry is “low polyreactivity”.
For the sequence “QVQLVESGGGLVQAGGSLRLSCAASGSTFHVNAMGWYRQAPGKEREFGAVISSSAGRTYYADSVKGRFTISRDNAKNTVYLQMNSLKPEDTAVYYCAAGTFKPYWRKFEYWGQGTQVTVSS”, the “polyreactivity (PSR sort gate)” value is “high polyreactivity”.
Take “QVQLVESGGGLVQAGGSLRLSCAASGSTFHYYAMGWYRQAPGKERELVAAIRTSGGSTYYADSVKGRFTISRDNAKNTVYLQMNSLKPEDTAVYYCNRVLGYPYGVDYWGQGTQVTVSS”: the “polyreactivity (PSR sort gate)” value is recorded as “high polyreactivity”.
Consider “QVQLVESGGGLVQAGGSLRLSCAASGSTFHYYAMGWYRQAPGKERELVAAISGSGSSTYYADSVKGRFTISRDNAKNTVYLQMNRLKPEDTAVYYCNARGHYPRARFGYKSGSDRYWGQGTQVTVSS”, for which the “polyreactivity (PSR sort gate)” value was “high polyreactivity”.
Take “QVQLVESGGGLVQAGGSLRLSCAASGSTFHYYAMGWYRQAPGKERELVAAISKRGTSTYYADSVKGRFTISRDNAKNTVYLQMNSLKPEDTSVYYCNRYPIRYKHRGLDYWGHGTQVTVSS”: the “polyreactivity (PSR sort gate)” value is listed as “high polyreactivity”.
On to “QVQLVESGGGLVQAGGSLRLSCAASGSTFHYYAMGWYRQAPGKERELVATITWRGGFTYYADSVKGRFTISRDNAKNTVYLQMNSLKPEDTAGYYCTDYSVRRYRDPRLYYWGQGTQVTVSS”, for which the “polyreactivity (PSR sort gate)” value was “high polyreactivity”.
As for “QVQLVESGGGLVQAGGSLRLSCAASGSTFHYYARGWYRQAPGKERELVAAISQSGSGTYYADSVKGRFTISRDYAKNTVYLQMNSLKPEDTAVYYCAKDITGLSRYRRDYWGQGTQVTVSS”, the entry is “low polyreactivity”; as for “QVQLVESGGGLVQAGGSLRLSCAASGSTFIFNAMGWYRQAPGKERELVAGISSGSPYYADSVKGRFTISRDNAKNTVYLQMNSLIPEDTAVYYCATKLRRWRFYAAYDYWGQGTQVTVSS”, “high polyreactivity”; as for “QVQLVESGGGLVQAGGSLRLSCAASGSTFIFYTMGWYRQAPGKERELVAAITSNGGSTYYADSVKGRFTISRDNAKNTVYFQMNSLKPEDTAVYYCARVDRWRRYRYIFSGYDYWGQGTQVTVSS”, “high polyreactivity”.
As for “QVQLVESGGGLVQAGGSLRLSCAASGSTFIIYAMGWYRQAPGKERELVAAISWSGGSTYYADSVKGRFTISRDNAKNTVYLQMNSLKPEDTAVYYCAVVYRTRWSDYDYWGQGTQVTVSS”, the entry is “high polyreactivity”.
As to “QVQLVESGGGLVQAGGSLRLSCAASGSTFIKYTMGWYRQAPGKERELVAAISVRGGSTTYADSVKGRFTISRDNAKNTVYLQRNSLKPEDTAVYYCAKDHYYAGTWRYGYWGQGTQVTVSS”, the “polyreactivity (PSR sort gate)” value is given as “high polyreactivity”.
Consider “QVQLVESGGGLVQAGGSLRLSCAASGSTFILYAMGCYIQAPGKERELVAAITASGGSTYADSVKGRFTISRDNSKNTVYLQMNSLKPEDSAVYYCAARRWSSKYRKYDYWGQGTQVTVSS”, for which the “polyreactivity (PSR sort gate)” value is reported as “high polyreactivity”.
Consider “QVQLVESGGGLVQAGGSLRLSCAASGSTFIPYTMGWYRQAPGKERELVAAISGRGGRTYYADSVKGRFTISRDNAKNTVYLQMNSLKPEDTAVYYCNRVLRYGPSAQYDYWGQGTQVTVSS”, for which the “polyreactivity (PSR sort gate)” value is “high polyreactivity”.
Consider “QVQLVESGGGLVQAGGSLRLSCAASGSTFIRYAMGWYRQAPGKERELVAAITSGGRTNYADSVKGRFTISRDNAKNTVYLQMNSLKPEDTAVYYCAKLRWVYGRQTLMDYWGQGTQVTVSS”, for which the “polyreactivity (PSR sort gate)” value was “high polyreactivity”.
As to “QVQLVESGGGLVQAGGSLRLSCAASGSTFISNTMGWYRQAPGKERELVAGISSIGGITYYADSVKGRFTISRDNAKNTVYLQMNSLKPEDTAVYYCAKLDVISDDLDYWGQGTQVTVSS”, the “polyreactivity (PSR sort gate)” value was “low polyreactivity”.
Take “QVQLVESGGGLVQAGGSLRLSCAASGSTFITNAMGGYRQAPGKERELVATISRSGGRTYYADSVKGRFTISRDNAKNSVYLEMNSLNPEDTAVFYCAKRYGSKFEYWGLGTQVTVSS”: the “polyreactivity (PSR sort gate)” value is given as “high polyreactivity”.
As for “QVQLVESGGGLVQAGGSLRLSCAASGSTFITNTMGWYRQAPGKERELVAAISKSGGSTYYADSVKGRFTISRDNAKNTVYLKMNSLKAEDTAVYYCAADIYVRDRGVKYDYWRQGTQVTVSS”, the entry is “low polyreactivity”; as for “QVQLVESGGGLVQAGGSLRLSCAASGSTFIVYAMGWYRQAPGKERELVAAISLDGGSTYYADSVKGRFTISRDNAKNTVYLQMNSLKPEDTAVYYCNADYYANSITYDSWGQGTQVTVSS”, “low polyreactivity”.
Turning to “QVQLVESGGGLVQAGGSLRLSCAASGSTFIVYAMGWYRQAPGKERELVAAITRGGSTNYADSVKGRFTISRDNAKNTVYLQMNSLKPEDTAVYYCAAPYAGWRDGGDYWGQGTQVTVSS”, the “polyreactivity (PSR sort gate)” value is reported as “low polyreactivity”.
As for “QVQLVESGGGLVQAGGSLRLSCAASGSTFIYYAMGWYRQAPGKEREFVAAISYRGGSTYYADSVKGRFTISRDNAKYTVYLQMNSLKPEDTAVYYCAASYRSWWETYLRGDYWGQGTQVTVSS”, the “polyreactivity (PSR sort gate)” value is given as “high polyreactivity”.
On to “QVQLVESGGGLVQAGGSLRLSCAASGSTFIYYAMGWYRQAPGKERELVAGISIRGGSTYADSVKGRFTISRDNAKNTVYLQMNSVKPEDTAVYYCNAYKRIKANGYAIRYYYWGQGTQVTVSS”, for which the “polyreactivity (PSR sort gate)” value was “high polyreactivity”.
On to “QVQLVESGGGLVQAGGSLRLSCAASGSTFKAYAMGWYRQAPGKEREFVAAITRSGGRTYYADSVKGRFTISRDNAKNTVYLQMNSLKPEDTAVYYCAAYTWYAWVSDPTNEYWGQGTQVTVSS”, for which the “polyreactivity (PSR sort gate)” value was “low polyreactivity”.
As for “QVQLVESGGGLVQAGGSLRLSCAASGSTFKDNAMGRYIQAPGKERELVARITYRGGRTYADSVKGRFTISRDNAKNTVYFQMNSLKPEDTAVYYCAARPSLYGHNSRYDYWGQGTQVTVSS”, the entry is “low polyreactivity”; as for “QVQLVESGGGLVQAGGSLRLSCAASGSTFKDNAMGWYRLAPGKERELVARITYRGGRTYADSVKGRFTISRDNAKNTVFLQMNSLKPEDTAVYYCAARPSLYGHNSRYDYWGQGTQVTVSS”, “low polyreactivity”; as for “QVQLVESGGGLVQAGGSLRLSCAASGSTFKFYAMGWYRQAPGKARELVASITSSSGPTYYADSVKGRFTISRDNAKNTVYLQMNSLKPEDPAVYYCNKDWRRYWLRGDYWGQGTQVTVSS”, “low polyreactivity”.
The same measure for “QVQLVESGGGLVQAGGSLRLSCAASGSTFKIYAMGWYRQAPGKERELVASIRGRGGSTYYADSVKGRFTISRDNAKNTVYLQLNSLKPEDTAVYYCNATYGHRYAPGISYDYWGQGSQVTVSS”: “high polyreactivity”.
